Laboratory results published in the supplement of paper PMC10126150.
± gives the standard deviation of the averaged measurements.

System: ATP
Experiment: switch fluorescence ratio, 500 uM ATP over buffer (Cy3 cluster intensity, sum of 5 cycles each) (fold (ratio)); higher = stronger signal-on switching upon ATP binding; sequences stand for … in TCGTCGGCAGCGTCAGATGTGTATAAGAGACAGTTTTTTTTTTTTTTTTTTTTTTTTT…TC
Settings: aptamer strand: ATP DNA aptamer (quencher-CACCTGGGGGAGTATTGCGGAGGAAGG + anchor), 100 nM annealed; ATP concentration: 500 uM
How it was run: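 Imaging in selection buffer was followed by imaging after 15 min with 500 uM ATP at 22 °C, for Cy3-labelled switching-strand clusters annealed to 100 nM quencher-labelled ATP aptamer on a modified Illumina MiSeq flow-cell. Five of these buffer/ATP cycles ran, separated by NaOH stripping and re-annealing. The fluorescence ratio per cluster is summed target-cycle over summed buffer-cycle Cy3 intensity, averaged per switch-domain sequence; clusters outside 100-1000 RFU were removed.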
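Also: ATP exposure 15 min at 22 °C before imaging.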

Sequence | switch fluorescence ratio
TGGGGATTGG | 1.17 ± 0.49
TGGGGATTTT | 0.998 ± 0.063
TGGGGCGAAG | 1.01 ± 0.026
TGGGGCGGGT | 1.02 ± 0.017
TGGGGCGTCT | 1.01 ± 0.043
TGGGGCTGCC | 0.969 ± 0.039
TGGGGCTTCA | 1.01 ± 0.028
TGGGGGAAA | 0.988 ± 0.04
TGGGGGAAAC | 1.01 ± 0.032
TGGGGGAACC | 1.004 ± 0.0099
TGGGGGACGT | 0.999 ± 0.045
TGGGGGAGCG | 0.99 ± 0.019
TGGGGGAGGT | 1 ± 0.027
TGGGGGCCAA | 0.965 ± 0.012
TGGGGGCCCT | 0.996 ± 0.026
TGGGGGCGCC | 0.982 ± 0.041
TGGGGGCGGT | 0.996 ± 0.028
TGGGGGCGTT | 1 ± 0.034
TGGGGGGACA | 0.985 ± 0.015
TGGGGGGCCG | 1.06 ± 0.19
TGGGGGGCTT | 0.989 ± 0.023
TGGGGGTGGA | 1.01 ± 0.046
TGGGGGTGTT | 1 ± 0.032
TGGGGGTTGC | 0.982 ± 0.042
TGGGGGTTTC | 0.975 ± 0.053

Sequence | switch fluorescence ratio
TGGGGTACCT | 1.08 ± 0.077
TGGGGTACTA | 0.975 ± 0.069
TGGGGTATTA | 0.998 ± 0.018
TGGGGTCGGG | 1 ± 0.022
TGGGGTCGTC | 1.038 ± 0.0087
TGGGGTCGTG | 0.964 ± 0.022
TGGGGTGCAC | 0.957 ± 0.024
TGGGGTTATC | 0.9931 ± 0.0079
TGGGGTTATG | 0.984 ± 0.019
TGGGGTTG | 0.993 ± 0.018
TGGGGTTGAG | 0.984 ± 0.019
TGGGGTTGAT | 0.968 ± 0.033
TGGGGTTTCA | 1 ± 0.012
TGGGGTTTCC | 1.16 ± 0.32
TGGGTAAACA | 1.02 ± 0.012
TGGGTAACGT | 0.987 ± 0.033
TGGGTAAGGC | 0.961 ± 0.08
TGGGTAATGC | 1.27 ± 0.13
TGGGTAATTG | 1.01 ± 0.019
TGGGTACAGT | 1.03 ± 0.05
TGGGTAGGTT | 1.06 ± 0.035
TGGGTATAGG | 0.975 ± 0.016
TGGGTCCGTT | 1.01 ± 0.036
TGGGTCTCTA | 1 ± 0.018
TGGGTCTTGG | 0.9835 ± 0.0057

Sequence | switch fluorescence ratio
TGGGTGCCGT | 1.04 ± 0.034
TGGGTGGAGG | 1.02 ± 0.043
TGGGTGGCAA | 1.03 ± 0.05
TGGGTGGGAA | 1.02 ± 0.04
TGGGTGGGGG | 1 ± 0.024
TGGGTGGTCT | 0.9972 ± 0.0054
TGGGTGGTTT | 1.02 ± 0.019
TGGGTGTGCT | 1.01 ± 0.03
TGGGTGTTGC | 0.941 ± 0.083
TGGGTGTTTG | 1.03 ± 0.038
TGGGTTAAAG | 0.993 ± 0.016
TGGGTTAAGA | 1.01 ± 0.034
TGGGTTAATG | 0.9912 ± 0.0069
TGGGTTATCG | 0.998 ± 0.025
TGGGTTCGAA | 0.98 ± 0.013
TGGGTTGTTA | 0.9852 ± 0.0095
TGGGTTTCT | 1 ± 0.041
TGGGTTTCTG | 1.02 ± 0.021
TGGGTTTCTT | 1.016 ± 0.0055
TGGGTTTGAG | 0.99 ± 0.035
TGGGTTTGAT | 1.01 ± 0.041
TGGGTTTGTG | 0.996 ± 0.033
TGGTAAAATT | 1.031 ± 0.01
TGGTAAAGCA | 1.06 ± 0.11
TGGTAAAGGT | 0.985 ± 0.014

Sequence | switch fluorescence ratio
TGGTAATATT | 0.962 ± 0.015
TGGTAGTTCG | 1.01 ± 0.046
TGGTATAGGT | 0.994 ± 0.038
TGGTATGGGG | 1.03 ± 0.087
TGGTATGGGT | 1.23 ± 0.33
TGGTATGTAG | 1.02 ± 0.031
TGGTCCCCGG | 0.997 ± 0.025
TGGTCCGCTA | 1.755 ± 0.011
TGGTCCTAGG | 1 ± 0.016
TGGTCGTCCG | 0.971 ± 0.057
TGGTCGTTCT | 1.03 ± 0.033
TGGTCGTTTT | 1.01 ± 0.04
TGGTCTTCTC | 1.16 ± 0.26
TGGTCTTTGT | 1 ± 0.015
TGGTCTTTTT | 0.995 ± 0.037
TGGTGAGATC | 0.965 ± 0.0039
TGGTGAGGTG | 1.02 ± 0.02
TGGTGATTAG | 0.995 ± 0.023
TGGTGCTTGT | 1.02 ± 0.024
TGGTGGAGGT | 0.977 ± 0.011
TGGTGGCCTT | 1.03 ± 0.032
TGGTGGCGTT | 1.026 ± 0.0082
TGGTGGGGAT | 0.985 ± 0.029
TGGTGGGGCG | 1.11 ± 0.051
TGGTGGGGTC | 1 ± 0.034

Sequence | switch fluorescence ratio
TGGTGGTAGG | 0.984 ± 0.063
TGGTGGTCAG | 0.98151 ± 0.00069
TGGTGGTGTG | 0.983 ± 0.035
TGGTGGTTGT | 1.02 ± 0.012
TGGTGTACTT | 1.01 ± 0.012
TGGTGTATAG | 1 ± 0.036
TGGTGTCAGC | 1.02 ± 0.013
TGGTGTGAAT | 1.01 ± 0.036
TGGTGTGGGC | 0.985 ± 0.048
TGGTGTTGCT | 0.9797 ± 0.0068
TGGTGTTTGT | 0.983 ± 0.029
TGGTGTTTTA | 0.994 ± 0.023
TGGTTAAAGG | 0.978 ± 0.024
TGGTTAAGGA | 1 ± 0.013
TGGTTAAGGG | 1 ± 0.041
TGGTTAAGGT | 0.982 ± 0.033
TGGTTACTTC | 1.04 ± 0.028
TGGTTAGATT | 0.996 ± 0.034
TGGTTATACT | 0.973 ± 0.052
TGGTTCACGT | 1 ± 0.024
TGGTTCAGAG | 0.969 ± 0.044
TGGTTCGGGT | 1.03 ± 0.036
TGGTTGAATT | 0.992 ± 0.05
TGGTTGGACG | 0.997 ± 0.017
TGGTTGGGCC | 0.985 ± 0.06

Sequence | switch fluorescence ratio
TGGTTGGGTG | 1.03 ± 0.059
TGGTTGGTCA | 0.992 ± 0.01
TGGTTGTCGC | 0.991 ± 0.065
TGGTTTAATG | 0.997 ± 0.015
TGGTTTACTC | 1.14 ± 0.18
TGGTTTAGGG | 0.981 ± 0.026
TGGTTTAGTT | 0.998 ± 0.017
TGGTTTATTG | 1.01 ± 0.024
TGGTTTCATT | 1.01 ± 0.017
TGGTTTCTTT | 1.006 ± 0.0059
TGGTTTGGCA | 0.962 ± 0.012
TGGTTTGGGG | 0.974 ± 0.021
TGGTTTTATA | 0.969 ± 0.02
TGGTTTTCGC | 0.975 ± 0.023
TGTAAAAAGT | 1 ± 0.026
TGTAAAATTT | 0.988 ± 0.053
TGTAACGGGA | 1.01 ± 0.018
TGTAAGGAAA | 1.03 ± 0.013
TGTAATTGCT | 0.999 ± 0.022
TGTAATTGGT | 1.003 ± 0.0089
TGTACTTTTT | 1.02 ± 0.022
TGTAGGAGAC | 1.24 ± 0.33
TGTAGGGATT | 1.01 ± 0.054
TGTAGTATGT | 1 ± 0.012
TGTAGTATTT | 1 ± 0.013

Sequence | switch fluorescence ratio
TGTAGTCTTT | 1.03 ± 0.052
TGTAGTTGGA | 0.973 ± 0.032
TGTATAAAAA | 0.9906 ± 0.0039
TGTATAAAGG | 1.009 ± 0.0069
TGTATAAAGT | 0.986 ± 0.02
TGTATAATTG | 0.993 ± 0.017
TGTATGGCTA | 1.0085 ± 0.00081
TGTATGGGAG | 0.968 ± 0.02
TGTATGGTAG | 0.975 ± 0.025
TGTATGTTAG | 0.9477 ± 0.0061
TGTATTTCGT | 1.01 ± 0.011
TGTATTTTTG | 1.02 ± 0.029
TGTCAGAGGG | 1.01 ± 0.016
TGTCAGGAAA | 0.9717 ± 0.0065
TGTCAGGGGG | 1.01 ± 0.023
TGTCAGTGGG | 0.975 ± 0.034
TGTCAGTTAT | 0.979 ± 0.031
TGTCATTCGC | 1.047 ± 0.0074
TGTCATTGGA | 0.989 ± 0.017
TGTCCACTAC | 2.78 ± 2.3
TGTCCGAGCA | 1.75 ± 0.058
TGTCCTAGCG | 0.99 ± 0.024
TGTCGCATTT | 1.04 ± 0.012
TGTCGGAGGG | 0.973 ± 0.065
TGTCGGCTGG | 1.02 ± 0.052

Sequence | switch fluorescence ratio
TGTCGGGGTT | 0.9932 ± 0.0083
TGTCGGTGTT | 0.971 ± 0.029
TGTCGGTTTT | 0.996 ± 0.037
TGTCGTAGGA | 1.006 ± 0.0035
TGTCGTTTTC | 0.98 ± 0.03
TGTCTTAGGA | 0.999 ± 0.019
TGTGAAAGAC | 1.044 ± 0.003
TGTGAAGTGG | 1.02 ± 0.034
TGTGAATTCG | 1.01 ± 0.024
TGTGACTAAG | 0.9791 ± 0.0015
TGTGAGGG | 1.03 ± 0.036
TGTGAGGGGA | 1.01 ± 0.035
TGTGAGGGTT | 0.964 ± 0.012
TGTGAGGTTC | 0.9675 ± 0.0075
TGTGAGTTGG | 1 ± 0.029
TGTGAGTTTA | 0.978 ± 0.028
TGTGAGTTTG | 1.03 ± 0.013
TGTGATGGGC | 0.989 ± 0.026
TGTGCGCGCT | 0.995 ± 0.036
TGTGCTGCTG | 1.06 ± 0.02
TGTGGAAAAA | 1.011 ± 0.0081
TGTGGACTGT | 0.9855 ± 0.0015
TGTGGAGCTT | 1.07 ± 0.041
TGTGGATAGG | 1.03 ± 0.012
TGTGGATTAT | 0.988 ± 0.011
